From publication PMC7652922

Experiment: L-[14C]arginine to L-[14C]citrulline conversion, transfected HEK293, low glucose
Conditions: glycan lost; control: WT-eNOS

B1: endothelial nitric oxide synthase (eNOS): T866A (protein)
parent chain: MGNLKSVAQEPGPPCGLGLGLGLGLCGKQGPATPAPEPSRAPASLLPPAPEHSPPSSPLTQPPEGPKFPRVKNWEVGSITYDTLSAQAQQDGPCTPRRCLGSLVFPRKLQGRPSPGPPAPEQLLSQARDFINQYYSSIKRSGSQAHEQRLQEVEAEVAATGTYQLRESELVFGAKQAWRNAPRCVGRIQWGKLQVFDARDCRSAQEMFTYICNHIKYATNRGNLRSAITVFPQRCPGRGDFRIWNSQLVRYAGYRQQDGSVRGDPANVEITELCIQHGWTPGNGRFDVLPLLLQAPDDPPELFLLPPELVLEVPLEHPTLEWFAALGLRWYALPAVSNMLLEIGGLEFPAAPFSGWYMSTEIGTRNLCDPHRYNILEDVAVCMDLDTRTTSSLWKDKAAVEINVAVLHSYQLAKVTIVDHHAATASFMKHLENEQKARGGCPADWAWIVPPISGSLTPVFHQEMVNYFLSPAFRYQPDPWKGSAAKGTGITRKKTFKEVANAVKISASLMGTVMAKRVKATILYGSETGRAQSYAQQLGRLFRKAFDPRVLCMDEYDVVSLEHETLVLVVTSTFGNGDPPENGESFAAALMEMSGPYNSSPRPEQHKSYKIRFNSISCSDPLVSSWRRKRKESSNTDSAGALGTLRFCVFGLGSRAYPHFCAFARAVDTRLEELGGERLLQLGQGDELCGQEEAFRGWAQAAFQAACETFCVGEDAKAAARDIFSPKRSWKRQRYRLSAQAEGLQLLPGLIHVHRRKMFQATIRSVENLQSSKSTRATILVRLDTGGQEGLQYQPGDHIGVCPPNRPGLVEALLSRVEDPPAPTEPVAVEQLEKGSPGGPPPGWVRDPRLPPCTLRQALTFFLDITSPPSPQLLRLLSTLAEEPREQQELEALSQDPRRYEEWKWFRCPTLLEVLEQFPSVALPAPLLLTQLPLLQPRYYSVSSAPSTHPGEIHLTVAVLAYRTQDGLGPLHYGVCSTWLSQLKPGDPVPCFIRGAPSFRLPPDPSLPCILVGPGTGIAPFRGFWQERLHDIESKGLQPTPMTLVFGCRCSQLDHLYRDEVQNAQQRGVFGRVLTAFSREPDNPKTYVQDILRTELAAEVHRVLCLERGHMFVCGDVTMATNVLQTVQRILATEGDMELDEAGDVIGVLRDQQRYHEDIFGLTLRTQEVTSRIRTQSFSLQERQLRGAVPWAFDPPGSDTNSP
Q: Which “enzymatic_activity, fold_change” value does the source give for B1 here?
A: Its value is “decreases, compared with T866A-eNOS, the activity of WT-eNOS was increased 8 to 10 folds”.
